Measurements from the supplement of paper PMC10126150.
± gives the standard deviation of the averaged measurements.

Tested on: ATP
Experiment: switch fluorescence ratio, 500 uM ATP over buffer (Cy3 cluster intensity, sum of 5 cycles each) (fold (ratio)); higher = stronger signal-on switching upon ATP binding; sequences stand for … in TCGTCGGCAGCGTCAGATGTGTATAAGAGACAGTTTTTTTTTTTTTTTTTTTTTTTTT…TC
Conditions: aptamer strand: ATP DNA aptamer (quencher-CACCTGGGGGAGTATTGCGGAGGAAGG + anchor), 100 nM annealed; ATP concentration: 500 uM
Summary of the method: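 Cy3-labelled switching-strand clusters on a modified Illumina MiSeq flow-cell were annealed to 100 nM quencher-labelled ATP aptamer and imaged first in selection buffer, then after 15 min with 500 uM ATP at 22 °C. NaOH stripping and re-annealing separated each of five buffer/ATP cycles, and clusters outside 100-1000 RFU were excluded. The fluorescence ratio sums target-cycle Cy3 intensity over buffer-cycle Cy3 intensity per cluster and averages it per switch-domain sequence.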
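Note: ATP exposure 15 min at 22 °C before imaging.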

Sequence	switch fluorescence ratio
TATGTTGTGA	0.9902 ± 0.0039
TATGTTTAAA	0.9922 ± 0.0042
TATGTTTCAG	0.972 ± 0.038
TATTAAATTG	0.9975 ± 0.0028
TATTAACATC	1.04 ± 0.014
TATTAAGATA	0.987 ± 0.043
TATTAATATT	1.003 ± 0.0059
TATTAATCGA	1 ± 0.016
TATTAATTCT	0.972 ± 0.036
TATTAATTGC	0.995 ± 0.025
TATTAATTTT	1.02 ± 0.015
TATTACAGGT	1.03 ± 0.0089
TATTACGGGG	1.005 ± 0.006
TATTAGATTT	0.996 ± 0.014
TATTAGGGTT	1.03 ± 0.045
TATTAGTACT	0.989 ± 0.011
TATTAGTGGG	0.979 ± 0.025
TATTAGTTGG	0.971 ± 0.023
TATTCGAAAT	1.02 ± 0.028
TATTCGCCTT	1.11 ± 0.12
TATTCGGTCG	0.993 ± 0.025
TATTCGTATT	0.981 ± 0.029
TATTCTAGTA	1.01 ± 0.022

Sequence	switch fluorescence ratio
TATTCTAGTG	1.013 ± 0.01
TATTCTCTTT	1.04 ± 0.081
TATTGAAAAA	1.06 ± 0.048
TATTGAACGA	1 ± 0.011
TATTGAAGAG	1.008 ± 0.0076
TATTGACCGT	1.04 ± 0.029
TATTGACGGA	1.006 ± 0.0096
TATTGCCTGT	0.974 ± 0.019
TATTGCTTT	0.977 ± 0.012
TATTGGCTTT	0.989 ± 0.014
TATTGGGAGG	0.968 ± 0.023
TATTGGTGCA	0.967 ± 0.017
TATTGTATGC	0.996 ± 0.037
TATTGTCTAC	0.9901 ± 0.0019
TATTGTGAAA	0.988 ± 0.012
TATTGTGAAT	1 ± 0.014
TATTGTGTCG	1.02 ± 0.016
TATTGTTTTG	0.986 ± 0.033
TATTTAAAAC	1.03 ± 0.021
TATTTAATTT	0.997 ± 0.026
TATTTAGACC	1.04 ± 0.012
TATTTAGAGG	1.01 ± 0.079
TATTTAGGGA	0.987 ± 0.022

Sequence	switch fluorescence ratio
TATTTAGGGT	1.01 ± 0.021
TATTTATAGC	1.02 ± 0.013
TATTTATCTG	1.02 ± 0.019
TATTTATGGT	0.976 ± 0.039
TATTTATGTC	1.02 ± 0.025
TATTTATTGT	1.01 ± 0.008
TATTTCATTT	1.06 ± 0.072
TATTTCCACT	1.023 ± 0.01
TATTTCGCGG	0.993 ± 0.045
TATTTCGGTG	0.982 ± 0.027
TATTTCTGTT	0.984 ± 0.025
TATTTGAAAT	1.01 ± 0.039
TATTTGAGGG	1 ± 0.041
TATTTGCACG	1.07 ± 0.062
TATTTGCATC	1.01 ± 0.018
TATTTGGATC	0.991 ± 0.035
TATTTGGATG	1.03 ± 0.069
TATTTGGCTT	1 ± 0.025
TATTTGGGGC	1.01 ± 0.058
TATTTGGTAT	0.9862 ± 0.0075
TATTTGTCCA	0.981 ± 0.047
TATTTGTTTT	0.998 ± 0.039
TATTTTAATC	1.04 ± 0.059

Sequence	switch fluorescence ratio
TATTTTACGC	1.01 ± 0.024
TATTTTATAT	0.943 ± 0.021
TATTTTATGT	1.021 ± 0.0042
TATTTTGAAC	1.0289 ± 4.6e-05
TATTTTGAGA	0.997 ± 0.012
TATTTTGTAG	0.995 ± 0.019
TATTTTTACA	1.012 ± 0.0086
TATTTTTGCG	0.97 ± 0.05
TATTTTTTGT	1.01 ± 0.021
TATTTTTTTG	1.01 ± 0.018
TCAAAAGGTG	1.33 ± 0.22
TCAAAATATA	0.987 ± 0.061
TCAAAATGCA	0.9976 ± 0.0092
TCAAAGGGCC	1.004 ± 0.0073
TCAAAGGGGG	0.951 ± 0.023
TCAAAGGGGT	1.052 ± 0.0047
TCAAAGTACC	1.16 ± 0.073
TCAAATAGCG	1.031 ± 0.0032
TCAAATAGGA	1.01 ± 0.012
TCAAATATTT	0.979 ± 0.0025
TCAAATTTTA	1.02 ± 0.031
TCAACGAATG	0.994 ± 0.08
TCAACGGGAA	1.01 ± 0.014

Sequence	switch fluorescence ratio
TCAACGGTAT	1.06 ± 0.029
TCAACTATAG	0.999 ± 0.01
TCAAGAAATC	0.983 ± 0.091
TCAAGAATGG	1 ± 0.059
TCAAGACCTT	1.19 ± 0.014
TCAAGATAGG	1.014 ± 0.0028
TCAAGCCATC	1.063 ± 0.0037
TCAAGCGAAC	1.48 ± 0.061
TCAAGGATGT	1 ± 0.032
TCAAGGGAAC	0.9826 ± 0.004
TCAAGGGATC	0.991 ± 0.073
TCAAGGGCAG	1.0257 ± 0.00011
TCAAGGGCGG	0.988 ± 0.044
TCAAGGGGGT	1.04 ± 0.097
TCAAGGGGTG	1.034 ± 0.0082
TCAAGGTGTT	1.15 ± 0.062
TCAATAGATG	0.998 ± 0.032
TCAATCATTT	0.997 ± 0.053
TCAATGAAGC	0.988 ± 0.012
TCAATGAGGG	1.01 ± 0.03
TCAATGCGAT	1.33 ± 0.19
TCAATGGGGG	0.985 ± 0.062
TCAATTATTT	1 ± 0.023

Sequence	switch fluorescence ratio
TCAATTGAGA	1.02 ± 0.01
TCAATTTAGA	1.03 ± 0.038
TCACAATGCT	1.55 ± 0.016
TCACAATTTA	0.9774 ± 0.0044
TCACACAGGC	1.08 ± 0.16
TCACACGGAG	1.043 ± 0.0056
TCACACGGGG	1.03 ± 0.061
TCACAGTTGC	0.99 ± 0.12
TCACATTAAC	1.04 ± 0.066
TCACATTTTC	1.09 ± 0.14
TCACCGCACG	2.2 ± 0.36
TCACGCTGTG	1.01 ± 0.036
TCACGGGGGA	1.03 ± 0.039
TCACGGGTGC	1.91 ± 0.19
TCACGGTTGC	1.04 ± 0.016
TCACTAGAGT	0.9722 ± 0.0053
TCACTATATT	1.08 ± 0.045
TCACTCATAT	1.02 ± 0.013
TCACTTTGTG	1.01 ± 0.043
TCAGACTACT	1.02 ± 0.021
TCAGAGCATC	1.96 ± 1.1
TCAGAGGAAT	1.01 ± 0.0089
TCAGAGGCGG	1 ± 0.011

Sequence	switch fluorescence ratio
TCAGATTAGC	0.998 ± 0.018
TCAGCAAAGT	1.08 ± 0.019
TCAGCAAATT	1.09 ± 0.041
TCAGCAATCG	2.57 ± 0.026
TCAGCATGCG	0.933 ± 0.025
TCAGCCCCAT	1.033 ± 0.0072
TCAGCGTTTC	1.05 ± 0.027
TCAGGACGGA	1.018 ± 0.0015
TCAGGAGTCT	0.977 ± 0.062
TCAGGATGGC	1.13 ± 0.092
TCAGGATTTC	1 ± 0.036
TCAGGCATTG	0.979 ± 0.018
TCAGGCGTGA	0.987 ± 0.035
TCAGGGACAA	1.01 ± 0.013
TCAGGGACGG	0.982 ± 0.025
TCAGGGATTG	0.977 ± 0.017
TCAGGGCGAA	0.995 ± 0.016
TCAGGGCGCA	1.03 ± 0.079
TCAGGGCTAG	0.9837 ± 0.0093
